What was measured:
[1] = target: T1, recombinant toxic shock syndrome toxin-1 (TSST-1), mature protein with N-terminal His6-tag (Staphylococcus aureus), P06886
T1 chain: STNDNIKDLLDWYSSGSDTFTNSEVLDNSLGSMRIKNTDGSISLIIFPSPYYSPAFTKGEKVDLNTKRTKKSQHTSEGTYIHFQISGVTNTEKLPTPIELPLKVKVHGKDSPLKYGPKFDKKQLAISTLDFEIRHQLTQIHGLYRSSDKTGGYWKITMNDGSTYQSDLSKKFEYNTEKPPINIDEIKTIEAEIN

[2] = target: T2, recombinant staphylococcal enterotoxin B (SEB), mature protein with N-terminal His6-tag (Staphylococcus aureus COL), P01552
T2 chain: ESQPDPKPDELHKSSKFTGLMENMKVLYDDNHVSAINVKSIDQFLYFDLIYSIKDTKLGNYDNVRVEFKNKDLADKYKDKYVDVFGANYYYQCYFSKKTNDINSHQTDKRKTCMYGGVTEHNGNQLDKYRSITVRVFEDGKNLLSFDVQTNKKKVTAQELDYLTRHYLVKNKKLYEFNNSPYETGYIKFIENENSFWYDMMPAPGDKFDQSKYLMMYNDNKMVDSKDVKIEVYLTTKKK

## DSDSWTLR (modifications not checked) [pB2-6, immobilized for Surface Plasmon Resonance]
[1]
  Kd: 1.2 µM
  koff: 0.00304 s⁻¹
  kon: 2530 M⁻¹ s⁻¹
[2]
  Kd: 3.9 µM
  koff: 0.0019 s⁻¹
  kon: 491 M⁻¹ s⁻¹

From patent publication US20200148741A1
